The values that follow come from patent US20220357317A1 (NATIONAL UNIVERSITY COMORATION HOKKAIDO UNIVERSITY, published 2022).

Assay [1] addresses T1, oxidized form of human α-defensin HD5 (HD5 with three intramolecular disulfide bonds) (human, six cysteine residues form three intramolecular disulfide bonds (oxidized form)).
T1 construct: Chemically synthesized mature HD5 (32 amino acids), oxidized and purified by reverse-phase chromatography; confirmed by MALDI-TOF MS; also called ox-HD5; DEFA5
T1 peptide: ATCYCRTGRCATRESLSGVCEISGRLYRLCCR
The experiment in a line: indirect ELISA screening, plate coated with 1 µg/ml ox-HD5, hybridoma supernatant. The method, then: Autoimmune disease mice (C3H/HeJJmsSlc-lpr/lpr available from Japan SLC, Inc.) injected with an adjuvant according to a conventional method were immunized with ox-HD5 by three times of intra-abdominal injection (0.2 mg each time). Later, cells were collected from the spleen of the immunized mice according to a conventional method, and then fused with a mouse myeloma cell line P3U1 with use of 50% polyethylene glycol 1500 (Sigma-Aldrich Co. LLC) to prepare hybridomas. Each hybridoma clone was screened by indirect ELISA, and subcloned four times by a limiting dilution method.
The indirect ELISA was carried out by the following procedures. Wells of a flat-bottomed microtiter plate (Nunc) were coated with 1 μg/ml of ox-HD5 dissolved in Ca²⁺/Mg²⁺-free phosphate buffered saline (PBS), and then incubated overnight at 4° C. After three times of washing with PBS containing 0.1% Tween 20 (PBS-T), culture supernatant from each hybridoma clone was added to the wells, and incubated at 37° C. for 1 hour. […] 100 μL of 3,3′,5,5′-tetramethylbenzidine (TMB) substrate buffer (KPL) was added to each well, then the plate was incubated at 25° C. for 30 minutes, and then absorbance at 405 nm was measured with use of a microplate reader Multiscan FC (Thermo Scientific).

Assay [2] concerns the target T2, reduced form of HD5 (HD5 without any intramolecular disulfide bond) (human, no intramolecular disulfide bonds (reduced form)).
T2 construct: Chemically synthesized mature HD5 before the oxidation treatment; also called r-HD5
T2 peptide: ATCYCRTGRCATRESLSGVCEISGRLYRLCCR
The experiment in a line: sandwich ELISA, capture 12-1 (1 mg/ml) with detection 39E-7 (0.5 mg/ml), antigen 0 to 60 ng/ml.

Assay [3] addresses T1, oxidized form of human α-defensin HD5 …. Description: sandwich ELISA, capture 12-1 (1 mg/ml) with detection 39E-7 (0.5 mg/ml).

B1: monoclonal antibody 12-1 (antibody, V domains shown)
VH: QVQLQQSGAELARPGASVKLSCKASGYTFTSYGISWVKQRTGQGLEWIGEIYPRSGNTYYNEKFKGKATLTADKSSSTAYMQLSSLTSEDSAVYFCARDYDGFPYFDYWGQGTTLTVSS
VL: DIVLTQSPASLAVSLGQRATISCRASESVDSYGYSFMHWYQQKPGQPPKLLIYRASNLESGIPARFSGSGSRTDFTLTINPVEADDVATYYCQQSNEDPRTFGGGTKLEIK
notes: constant regions are not; Immobilized on the plate as capture antibody in the sandwich ELISA; also called capture antibody 12-1; anti-ox-HD5 monoclonal antibody according to a)
B1: the binding result in assay [1] and in assay [2] was “binds” in each case.

B2: monoclonal antibody 39E-7 (antibody, V domains shown)
VH: EVQLQQSGPELVKPGASVKISCKASGYSFTGSYMNWVKQSPEKSLEWIGEINPSTGGTTHNQKFKAKATLTVDTSSSTFYMQLKSLTSEDSAVYYCARDYAGSYDWYFDVWGAGTTVTVSS
VL: DIKMTQSPSSMYASLGERVTITCKASQDINSYLSWFQQKPGKSPKTLIYRANRLVDGVPSRFSGSGSGQDYSLTISSLEYEDMGIYYCLQYDEFPYTFGGGTKLEII
notes: constant regions are not; also called detection antibody 39E-7; anti-ox-HD5 monoclonal antibody according to b)
Consider B2, for which the binding result in assay [3] and in assay [2] was “binds” in each case.
